From the Immune Epitope Database (IEDB)
pKd: −log10 of the molar value.

Tests used:
HLA-B*44:03 = assay: IEDB peptide-MHC binding, purified MHC/competitive/radioactivity; filed as Kd, often an IC50 or EC50 that approximates it; ≥ and ≤ were set here for values at or beyond the usual limits of such assays
HLA-B*18:01 = assay: as above
HLA-B*40:02 = assay: as above
HLA-B*40:01 = assay: as above
HLA-B*44:02 = assay: as above
HLA-B*45:01 = assay: as above
HLA-A*02:06 = assay: as above; conditions: source organism: Dengue virus 3 Martinique/1243/1999
HLA-B*15:01 = assay: as above
HLA-A*03:01 = assay: IEDB peptide-MHC binding, purified MHC/competitive/fluorescence; filed as Kd, often an IC50 or EC50 that approximates it; ≥ and ≤ were set here for values at or beyond the usual limits of such assays
HLA-A*23:01 = assay: IEDB peptide-MHC binding, purified MHC/competitive/radioactivity; filed as Kd, often an IC50 or EC50 that approximates it; ≥ and ≤ were set here for values at or beyond the usual limits of such assays
HLA-A*26:01 [1] = assay: IEDB peptide-MHC binding, purified MHC/competitive/fluorescence; filed as Kd, often an IC50 or EC50 that approximates it; ≥ and ≤ were set here for values at or beyond the usual limits of such assays
HLA-B*35:01 = assay: IEDB peptide-MHC binding, purified MHC/competitive/radioactivity; filed as Kd, often an IC50 or EC50 that approximates it; ≥ and ≤ were set here for values at or beyond the usual limits of such assays
HLA-B*53:01 = assay: as above
HLA-A*26:01 [2] = assay: as above; conditions: source organism: Dengue virus 3 Martinique/1243/1999
HLA-A*24:02 = assay: as above; conditions: source organism: Dengue virus 3 Martinique/1243/1999
HLA-A*30:01 = assay: as above; conditions: source organism: Dengue virus 1 Brazil/97-11/1997
HLA-A*32:01 = assay: as above
HLA-B*51:01 = assay: as above
[3] = source organism: Mammarenavirus lassaense
[4] = source organism: Mammarenavirus juninense
[5] = source organism: Dengue virus 3 Martinique/1243/1999
[6] = source organism: Dengue virus 4 Philippines/H241/1956
[7] = source organism: Dengue virus 4 Dominica/814669/1981
[8] = source organism: SARS coronavirus Tor2
[9] = source organism: Mammarenavirus machupoense
[10] = source organism: Dengue virus 1 Brazil/97-11/1997
[11] = source organism: Vaccinia virus WR
[12] = source organism: Vaccinia virus Copenhagen
[13] = source organism: Dengue virus 2 Jamaica/1409/1983

ADNLITEML
pKd (HLA-B*44:03; [3]): 4.91
pKd (HLA-B*18:01; [3]): ≤ 4.44
pKd (HLA-B*40:02; [3]): 6.38
pKd (HLA-B*40:01; [3]): ≤ 4.56
pKd (HLA-B*44:02; [3]): 5.21
pKd (HLA-B*45:01; [3]): ≤ 4.11

AETGSQGVYM
pKd (HLA-B*44:03; [4]): 5.98
pKd (HLA-B*18:01; [4]): ≤ 4.15
pKd (HLA-B*40:02; [4]): 6.74
pKd (HLA-B*40:01; [4]): 5.52
pKd (HLA-B*44:02; [4]): 6.52
pKd (HLA-B*45:01; [4]): 4.87

AQMWSLMYF
pKd (HLA-A*02:06): 7.89
pKd (HLA-B*15:01; [5]): 9.48

ATYQRTRALVR
pKd (HLA-A*03:01; source organism: Influenza A virus (A/swine/Italy/1509-6/97(H1N1))): 7.41

CLIPTAMAF
pKd (HLA-B*15:01; [6]): 8.03
pKd (HLA-A*23:01; [6]): 6.35

CLIPTVMAF
pKd (HLA-B*15:01; [7]): 9.19
pKd (HLA-A*23:01; [7]): 7.09

DEFIQRYKL
pKd (HLA-B*44:03; [8]): 5.06
pKd (HLA-B*18:01; [8]): 7.32
pKd (HLA-B*40:02; [8]): 5.60
pKd (HLA-B*40:01; [8]): ≤ 4.62
pKd (HLA-B*44:02; [8]): 4.80
pKd (HLA-B*45:01; [8]): ≤ 4.59

DELGNILSTY
pKd (HLA-B*44:03; [9]): 6.44
pKd (HLA-B*18:01; [9]): 8.06
pKd (HLA-B*40:02; [9]): 5.27
pKd (HLA-B*40:01; [9]): ≤ 4.16
pKd (HLA-B*44:02; [9]): 5.73
pKd (HLA-B*45:01; [9]): ≤ 4.15

DLYRMYSRY
pKd (HLA-A*26:01 [1]; source organism: Actinobacillus pleuropneumoniae serovar 1 str. 4074): 6.52

DPVVYDAKF
pKd (HLA-B*35:01; [10]): 6.02
pKd (HLA-B*53:01; [10]): 6.19

EEAALCTFL
pKd (HLA-B*44:03; [8]): 6.77
pKd (HLA-B*18:01; [8]): 4.93
pKd (HLA-B*40:02; [8]): 6.08
pKd (HLA-B*40:01; [8]): 6.76
pKd (HLA-B*44:02; [8]): 6.34
pKd (HLA-B*45:01; [8]): 7.42

EEGNLLDSYF
pKd (HLA-B*44:03; [8]): 7.93
pKd (HLA-B*18:01; [8]): 4.97
pKd (HLA-B*40:02; [8]): ≤ 4.15
pKd (HLA-B*40:01; [8]): ≤ 4.38
pKd (HLA-B*44:02; [8]): 8.41
pKd (HLA-B*45:01; [8]): ≤ 4.69

EELSLMYEAL
pKd (HLA-B*44:03; [9]): 5.70
pKd (HLA-B*18:01; [9]): 5.74
pKd (HLA-B*40:02; [9]): 6.69
pKd (HLA-B*40:01; [9]): 4.81
pKd (HLA-B*44:02; [9]): 5.75
pKd (HLA-B*45:01; [9]): 5.80

EEPVSLLPLS
pKd (HLA-B*44:03; [9]): 5.73
pKd (HLA-B*18:01; [9]): ≤ 4.42
pKd (HLA-B*40:02; [9]): 5.21
pKd (HLA-B*40:01; [9]): 5.13
pKd (HLA-B*44:02; [9]): 5.24
pKd (HLA-B*45:01; [9]): 6.25

ETIVLLRAF
pKd (HLA-A*26:01 [1]; source organism: Influenza A virus (A/Wellington/22/2001(H3N2))): 7.56

FEIKSAKKF
pKd (HLA-B*44:03; [8]): 7.45
pKd (HLA-B*18:01; [8]): 5.97
pKd (HLA-B*40:02; [8]): 6.21
pKd (HLA-B*40:01; [8]): 5.77
pKd (HLA-B*44:02; [8]): 7.80
pKd (HLA-B*45:01; [8]): 4.74

FLWWGKWRK
pKd (HLA-A*03:01; source organism: Brucella abortus str. 2308 A): 8.51

GEPKTVKVL
pKd (HLA-B*44:03; [3]): ≤ 4.11
pKd (HLA-B*18:01; [3]): ≤ 4.11
pKd (HLA-B*40:02; [3]): 6.25
pKd (HLA-B*40:01; [3]): 4.73
pKd (HLA-B*44:02; [3]): ≤ 4.11
pKd (HLA-B*45:01; [3]): ≤ 4.11

GETPIAYRNV
pKd (HLA-B*44:03; [8]): ≤ 4.64
pKd (HLA-B*18:01; [8]): ≤ 4.23
pKd (HLA-B*40:02; [8]): 6.55
pKd (HLA-B*40:01; [8]): 5.78
pKd (HLA-B*44:02; [8]): ≤ 4.42
pKd (HLA-B*45:01; [8]): 6.16

HDLPLLCNL
pKd (HLA-B*44:03; [4]): 5.39
pKd (HLA-B*18:01; [4]): 4.91
pKd (HLA-B*40:02; [4]): 7.82
pKd (HLA-B*40:01; [4]): ≤ 4.42
pKd (HLA-B*44:02; [4]): 5.83
pKd (HLA-B*45:01; [4]): ≤ 4.11

HMIAGVFFTF
pKd (HLA-A*26:01 [2]): ≤ 4.48
pKd (HLA-B*15:01; [5]): 8.83
pKd (HLA-A*24:02): 7.00
pKd (HLA-A*23:01; [5]): 7.54

KLSSEQLSK
pKd (HLA-A*03:01; source organism: Trypanosoma cruzi): 6.97

KMRPMFAVG
pKd (HLA-A*30:01): 7.83
pKd (HLA-B*15:01; [10]): 7.46

LLAISAVYF
pKd (HLA-B*15:01; [11]): 7.50

LLYTANFTF
pKd (HLA-B*15:01; [11]): 8.61
pKd (HLA-A*32:01; [11]): 8.17

LMRSICVSI
pKd (HLA-B*15:01; [12]): 7.20
pKd (HLA-A*32:01; [12]): 6.42

LPAIVREAIK
pKd (HLA-B*51:01; [13]): ≤ 4.16
pKd (HLA-B*35:01; [13]): 5.26
pKd (HLA-B*53:01; [13]): 5.33

LPEDIEQMAN
pKd (HLA-B*51:01; [5]): ≤ 4.16
pKd (HLA-B*35:01; [5]): 6.05
pKd (HLA-B*53:01; [5]): 5.68

LPESLETLM
pKd (HLA-B*51:01; [6]): 5.61
pKd (HLA-B*35:01; [6]): 6.33
pKd (HLA-B*53:01; [6]): 6.25
